Measurements reported in the nanobody polyreactivity screen of Harvey et al. (2022).

Assay: yeast display, Sf9 membrane polyspecificity reagent, FACS + sequencing; frameworks hold sequencing errors
Outline: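 After 36–48 hours of galactose induction, yeast (Saccharomyces cerevisiae BJ5465) displaying a synthetic nanobody library were stained at 4 °C for 1 hour with 10% biotinylated, detergent-solubilized Sf9 membrane reagent. Streptavidin microbeads enriched the stained cells before FACS sorting into low and high (top ~1%) gates on anti-HA and streptavidin fluorescence. Each clone's polyreactivity label reflects its gate of origin.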

Sequence	polyreactivity (PSR sort gate)
QVQLVESGGGLVQAGGSLRLSCAASGLIFILYAMGWYRQAPGKERELVAAISWTGGSTYYADSVKGRFTISRDNAKNTVYLQMNSLKPEDTAVYYCNKVGVRSGARSIYVVRRYEYWGQGTQVTVSS	high polyreactivity
QVQLVESGGRLVQAGGSLRLSCAASGRILPGNAMGWYRQAPGKEREFVAAISYSGGRTYYADSVKGRFTISRDNAKNNVYLQMNSLKPEDTAVYSCAARSYGSAYYYWGQGTQVTVSS	high polyreactivity
QVQLVESGGGLVQAGGSLRLSCPAYGSIFIGNAMGWYRQAPGKERELVAVISKGGGRTYYADSVKGRFTISRDNAKNTVYLQMNSLKPEDTAVYYCNTRNPDSGDYWGQGTQVTVSS	high polyreactivity
QVQLVESCGGLVQAGGSLRLSCAASGFIFFANTMGWYRQAPGKERELVAAITSDGSTYYADSVKGRFTISRDNAKNTVYLQMNSLKPEDTAVYYCNAQSNYADLAYWNDYWGQGTKVTVSS	low polyreactivity
QVHLVESGGGLVQAGGSLRISCAASGNIFPNNGMGWNRQAPGKERELVAAISFNGDDTYADSVKGRFTISRDNAKNTVYLKMNSLNPEDTAVYYCNAVPGADQFSAPVITTAEDYWGQGTQVTVSS	low polyreactivity
QVQLVDSGGGLVQAGGSLRLSCAASGRTCYTNAMGWYRQAPGKERELVAAINRSGGSTYYADSVKGRFTISRDNAKNTVYLQMNSLKPEDTAVYYCNKAFTHTKYLSPIAYEYGYWGQGTQVTVSS	low polyreactivity
QVQLVESGGGLVQAGGSLRLSCAASGITFSYYAMGWYRPAPGKERELVAAINSGGGSTYYADSVKGRFTISRDNAKNTVYLQMNSLKPEDTAVYYCAARYRSRYDYYYDRDYWGQGTQVTVSS	low polyreactivity
QVQLVESGGGLVQAGGSLRLSCAASGSTFFYYAMGWYRKAPGKERDFVAAISKSGGRTYYADTVKGRFTISRDNAKNTVYLQMNSLKPEDTAVYYCAAYYEYRRDYWGQCTQVTVSS	high polyreactivity
QVQLVESGGVLVQAGGSLRLSCAASGRTFGVYAMGWYRQAPGKERELVATITSVDRTNYADSVKGRFTISRDNAKNTVYLQMNSLKTEDTAVYYCAAVGRWPLYYYWGQGTQVTVSS	high polyreactivity
QVQLVESGGGLVQAGGSLRLSCAASGRTFGRYAKGWYRQAPGKERELVATITSGGSTNYADSVKGRFTISRDNAKNTVYLQMNSLKPEDTAVYYCAAEFSPSRWAYSEGALRYNYWGQGTQVTVSS	low polyreactivity
QVQLVESGGGLVQAGGSLRLICAASGRIFGTNAIGWYRQAPGQEREVVATITRGGGNTYYADSVKGRFTISRDNAKNTVYLQMNSLKPEDTAVYYCAAKFHRFAWYAHYDYWGPGTQVTVSS	low polyreactivity
QVQLVESGGGLVQAGGSLRLSSAASGFTFYRNPMGWYRQAPGKERELVAAITRSGTSTYYADSVKGRFTISRDNAKNSVYLQKNSLKPEDTAVYYCNTVGYRGRSNSRFYYWGQGTQVTVSS	high polyreactivity
QVKLVESGGGLVQAGGSLRLSCADSGSIFGGNTMVWYRQAPGKEREFVAAITWGGNTYYADSVKGRFTISRDNAKNTVYLQTNSLKPEDTAVYYCAAGGRPQYWGRYYYWGQGTQVTVSS	high polyreactivity
QVQLVESGGGLVQAGGSLRLSCAASGFTIWPYAMGWYRQPPGKERELVAGITRNGGSTYYADSVKGRFTISRDNAKNTVYLQMNSLKPEDTAVYYCNTKYAVEFDYWGQGTQVTVSS	low polyreactivity
QVQLVESGGGLVQAGGSLRLSCAASGRIFYYYAMGRYRQAPGKERELVAAITQSGGSTYYADSVKGRFTISRDNAKNTVYLQMNSLKPEDTAVYYCNAVLSSNTKWRYPGDYWGQGTQVTVSS	low polyreactivity
QVQLVESGGGLVQAGGSLRLSCAASGRIFTIYTMGWYRQAPGKERELVAAISVNGGRTYYADSVKGRFTISRDNAKNTVYLQMNSLKPEDTAVYYCAARRRFGYHQQRYDYWGQGTQVTVSS	high polyreactivity
QVQLVESGGGLVQAGGSLRLSCAASGSTFGPNGMGWYRQAPGKERELVARIDRIGGGTYYADSVKGRFTISRDNAKNTVYLQMNSLKPEDTAVYSCAADGPSPFIQGYAKGDYWGQGTQVTVSS	low polyreactivity
QVQLVESGGGLVQAGGSLRLSCAASGRTFKTYARGWYREAPGKERELVAAISRDGRTYYADSVKGRFTISRDNAKNTVYLQRNSLKPEDTAVYYCAVGIYDHLYNHEYWGQGTQVTVSS	low polyreactivity
QVQLVESGGGLVQAGGSLRLSCAASGNIFSWYAMGWYRQAPGKERELVAAITSGGITYYADSVKGRFTISRDNAKNTVYLQMNSLKPEDTAVYYCNIDVGFTRPLYYWGQGTQVTVSS	low polyreactivity
QVQLVQSRGGLVHAGGSLRFSSAATGITILRYAMGWYIQAPGKERELVAGISWDGGRTYNADSVKGRFTISRDNAKNTVFLQMNSMKPEDTEVYYCADKPSRYRVSLFDYWGHGTQVTVSS	low polyreactivity
QVQLVESGGGLVQAGGRLRLSCAASGSTFFIYAMRCFRQAPGKERELVAAISSRGGRTYYADSVKGRFTISRDNAKNTVYLQMNSLKPEDTAVYYCYFLIYSKGQAFDYWGQGTQVSVSS	high polyreactivity
QVQLVESGGGLVQAGGSLRLSCAASGRTFYRNAMGWYRQAPGKERELVATLNSGGSTHYADSVKGRFTISRDNAKNTVYLQMNSLKPEDTAVYYCAARSPSYRGSLSYYWGQGTQVTVSS	high polyreactivity

Sequence	polyreactivity (PSR sort gate)
QVQLVESGGGLVQAGGSLRFSCAASGRTFNWYAMGWYRQAPGKERELVAAISSRGGSTYADSVKGRFTISRDNAKNTVYLQMNSLKPEDTAVYYCAARHHGTKYDYWGQGTQVTVSS	low polyreactivity
QVQLVESGGGLVQAGGSLRLSCAASGSTFRRNAMGWYRQAPGKERELVAAISRSGDSTYYADSVKGRFTISRDYAKNTVYLQMNSLKPEDNAVYYCIAHQSRQVGYWGQGTQVTVSS	high polyreactivity
QVQLVESGGGLVQAGGSLRLSCAASGFIFANYGMGWYRQAPGKERELVAAISSGGRTYYADSVKARFTISRDNAKNTVYFQMNSLQPEDTAVYYCAAVVRRYNAEDYWGQGTQVTVSS	high polyreactivity
QVQLVESGGGLVQAGGSLRLSCAASGFIFSQYARGWYRQAPGKERELVAAISYSGGSTYYADSVKGRFTISRDNAKNTVYLQMNSLKPEDTAVYYCAVSGRSYYRSDYWGQGTQVTVSS	high polyreactivity
QVQLVESGGGLVQAGGSLRLSCAASGRTFSANTMGRYRQAPGKERELVAAITRGASTKYADSVKGRFTISRDNAKNTVYLPMNSLNPDDTAVYYCAAAVAYEYLQYAYTRYYYWGQGTQVTVSS	high polyreactivity
QVQLVESGGGLVQAGGSLRLSCAASGSIFRFYAMGWYRQAPGKERELVAAITSGGSTNYADSVKGRFTISRDNAKNTVYLQMNSLKPEDTAVYYCAAELVYFFIYDYWGKGTQVTVSS	low polyreactivity
QVQLVESGGGLVQAGGSLRLSCAASGFIFGYYAMGWYRQAPAKERELVAAINWSGGSTYYADSVKGRFTISRDNAKNTVYLQMNSLKPEDTAVYYCAARYPYRRGGQDSYYYWGQGTQVTVSS	high polyreactivity
QVQLVESGGGLVQAGGCLRLSCAASGSTFYGYAMGWYRQAPGKERELVAAISRIGSSTYYADSVKGRFTISRDNAKITVYLQMNSLKPEDTAVYYCAADTWKVFGVDYWGQGTQVSVSS	high polyreactivity
QVQLVESGGGLVQAGGSLRLSSDASGSIFTAYSIGWYRQAPGKERELVADITQSAGSTYADSVKGRFTISRDNAKNTVYLQMNSLKPADTAVYYCAARYRYPYYARYGYWGQGTQVTVSS	high polyreactivity
QVQLVESGGGLVQAGGSLRLSCAASGRTFRFNAMGWYRQAPGKEMELVAAISSGGRTYYADSVKGRFTISRDNAKNTVYLQMNSLKPEDTAVYYCAARVFVRHPHQVAYDYWGQGTQVTVSS	high polyreactivity
QDQLVESGGGLVQAGGSLRLSCAASGRTFRRYALGWYRQAPGKETELVAVISGGGTYYADSVKGRFTISRDNAKNTVYLQMNSLKPEDTAVYYCAARYRQTRSPSYDYWGQGTQVTVSS	high polyreactivity
QVQLVESGGGLVQAGGSLRLSCAASGFIFRDNAMGWYRQAPGKERELVAAISKSGGRTYYADSVKGRFTISRDNAKNTVYLQMNSLKPEDTAVYYCAKASRYWSLYYWGQGTQVTVSS	high polyreactivity
QVQLVESGVGLVQAGGSLRLSCAASGRTFVYAMGWYRQAPGKERELVAAISYNGGSTYYADSVKGRFTISRDNAKNTVYLQMNSLKPEDTAVYYCAADISVGRYGDMDYWGQGTQVTVSS	low polyreactivity
QVQLVESGGGLVQAGGSLRLSCAASGRIFNVNVMGWYRQAPGKERELVASINWSGTSTYYADSVKGRFTISRDNAKNTVYLQMNSLKPEDTAVYYCAADLALYNTLYLTLPDYYWGQGTQVTVSS	low polyreactivity
QVQLVESGGGLVQAGGSLRLSCAASGRTFFQYGMGWYRQAPGKERELVASITRSGGRTNYADSVKGRFTISRDNAKNTVYLQMNSLKPEDTAVYYCAAYYYGSAAYGYGYNYWGQGTQVTVSS	high polyreactivity
QVQLVESVGGLVQAGGSLRLSCAASGSIFRRYAMGWYRQAPGKERELVAGISSGGYTNYADSVKGRFTISRDNAKNTVYLQMNSLKPEDTAVYYCAAKQYRYVRYRPVDYWGQGTQVTVSS	high polyreactivity
QVQLVESCGGLVQAGGSLRLSCAASGIIFEGNTLGWYRQAPGKEREFVAAISRNGGSTSYADSVKGRFTISRDNAKNTVYLQINSLKPEDTAVYYCAADVESFWGWRYEYWGQGTQVTVSS	low polyreactivity
QVQLVESGGGLVQAGGSLRLSCAASGNIFVLNPMGWYRQATCKETELVAAISRSGVRTYYADSVKGRFTISRDNAKNTVYLQMNSLKPEDTAVYYCAAVYKRLQPYGYWGQGTQETVSS	high polyreactivity
QVQLVESGGGLVQAGGSLRLSCAASGSIFGQYAMGWYRQAPGKERELVASISASAASTYYADSVKGRFTISRDNAMNTVYLQLNSLKPEDTAVYYCNATTRWIGYVTIDFDYWGQGTQVNVSS	low polyreactivity
QVQLVDSGGGLVQAGGSLRLSCAASGRTIYLYAMACYRQAPGKERELVAAISERGGRTYYADSVKGRFTISRDNAKNTVYLQMNSLKPEDTAVYYCAAVKGYNYGYWGQGTQVTVSS	high polyreactivity
QVQLVESGGGLVQAGGSLRLSCAASGSILHLYAMGWYRQAPGKERELVARINSGGTTNYADSVKGRFTISRDNAKNTVYLQMNSLKPEDTAVYYCAARFTPFITSDDGHYDYWGQGTQVTVSS	low polyreactivity
